pKd: −log10 of the molar value.
How the values were obtained:
Experiment in all cases: fluorescence anisotropy
[1] = test system: GyrA CTD lacking GyrA-box (Bacillus subtilis); conditions: CTD: 50 mM Tris-HCl, 40 mM KCl (Results say NaCl), 10 mM MgCl2, 25 C (pH not stated), 100 nM DNA; gyrase: 50 mM Tris-HCl pH 7.5, 100 mM KCl, 10 mM MgCl2, 37 C …
[2] = test system: GyrA CTD (Bacillus subtilis); conditions: CTD: 50 mM Tris-HCl, 40 mM KCl (Results say NaCl), 10 mM MgCl2, 25 C (pH not stated), 100 nM DNA; gyrase: 50 mM Tris-HCl pH 7.5, 100 mM KCl, 10 mM MgCl2, 37 C …
[3] = test system: GyrA lacking GyrA-box (GyrA_dA);GyrB (Bacillus subtilis;Bacillus subtilis); conditions: 4 uM GyrB, 10 mM Mg2+, 37 C; CTD: 50 mM Tris-HCl, 40 mM KCl (Results say NaCl), 10 mM MgCl2, 25 C (pH not stated), 100 nM DNA; gyrase: 50 mM Tris-HCl pH 7.5, 100 mM KCl, 10 mM MgCl2, 37 C …
[4] = test system: GyrA;GyrB (Bacillus subtilis;Bacillus subtilis); conditions: 4 uM GyrB, 10 mM Mg2+, 37 C; CTD: 50 mM Tris-HCl, 40 mM KCl (Results say NaCl), 10 mM MgCl2, 25 C (pH not stated), 100 nM DNA; gyrase: 50 mM Tris-HCl pH 7.5, 100 mM KCl, 10 mM MgCl2, 37 C …

Substance	pKd [1]	pKd [2]	pKd [3]	pKd [4]
40-bp DNA wrapping substrate	4.88	4.88	–	–
60-bp gate-DNA	–	–	7.30	7.20
